In patent publication US20110118131A1 (published 2011):
Substitutions are numbered along the chain they refer to. In names and notes the source's numbering stands.

B1: XPA23 Fab, heavy chain Y107R (Fab, V domains shown)
VH: EVQLLESGGGLVQPGGSLRLSCAASGFTFSKYFMFWVRQAPGKGLEWVSVISPSGGMTRYADSVKGRFTISRDNSKNTLYLQMNSLRAEDTAVYYCARVGYGGNSDRWGQGTLVTVSS
VL: DIQMTQSPSSVSASVGDRLTIICRASQDINRWLAWYQQTPGNAPKLLIHSATSLQSGVPSRFSGSGSGTDFTLTINSLQPEDFATYYCQQADSFPLTFGGGTKVEIK
B2: XPA23 Fab, heavy chain Y107W (Fab, V domains shown)
VH: B1 VH with R107W
VL: B1 VL
B3: XPA23 Fab, heavy chain V50F (Fab, V domains shown)
VH: B1 VH with V50F, R107Y
VL: B1 VL
B4: XPA23 Fab, heavy chain Y107D (Fab, V domains shown)
VH: B1 VH with R107D
VL: B1 VL
B5: XPA23 Fab, heavy chain Y107F (Fab, V domains shown)
VH: B1 VH with R107F
VL: B1 VL
B6: XPA23 Fab, heavy chain Y107N (Fab, V domains shown)
VH: B1 VH with R107N
VL: B1 VL
B7: XPA23 Fab, heavy chain Y32Q (Fab, V domains shown)
VH: B1 VH with Y32Q, R107Y
VL: B1 VL
B8: XPA23 Fab, heavy chain V50Q (Fab, V domains shown)
VH: B1 VH with V50Q, R107Y
VL: B1 VL
B9: XPA23 Fab, heavy chain Y107S (Fab, V domains shown)
VH: B1 VH with R107S
VL: B1 VL
B10: XPA23 Fab, heavy chain Y107Q (Fab, V domains shown)
VH: B1 VH with R107Q
VL: B1 VL
B11: XPA23 Fab, heavy chain Y101W (Fab, V domains shown)
VH: B1 VH with Y101W, R107Y
VL: B1 VL
B12: XPA23 Fab, heavy chain Y32F (Fab, V domains shown)
VH: B1 VH with Y32F, R107Y
VL: B1 VL
B13: XPA23 Fab, heavy chain V50E (Fab, V domains shown)
VH: B1 VH with V50E, R107Y
VL: B1 VL
B14: XPA23 Fab, heavy chain V99F (Fab, V domains shown)
VH: B1 VH with V99F, R107Y
VL: B1 VL
B15: XPA23 Fab, heavy chain Y107H (Fab, V domains shown)
VH: B1 VH with R107H
VL: B1 VL
B16: XPA23 Fab, heavy chain V50K (Fab, V domains shown)
VH: B1 VH with V50K, R107Y
VL: B1 VL
B17: XPA23 Fab, heavy chain Y32H (Fab, V domains shown)
VH: B1 VH with Y32H, R107Y
VL: B1 VL
B18: XPA23 Fab, heavy chain Y101F (Fab, V domains shown)
VH: B1 VH with Y101F, R107Y
VL: B1 VL
B19: XPA23 Fab, heavy chain Y32N (Fab, V domains shown)
VH: B1 VH with Y32N, R107Y
VL: B1 VL
B20: XPA23 Fab, heavy chain V50W (Fab, V domains shown)
VH: B1 VH with V50W, R107Y
VL: B1 VL
B21: XPA23 Fab, heavy chain V50S (Fab, V domains shown)
VH: B1 VH with V50S, R107Y
VL: B1 VL
B22: XPA23 Fab, heavy chain V50H (Fab, V domains shown)
VH: B1 VH with V50H, R107Y
VL: B1 VL
B23: XPA23 Fab, heavy chain Y107E (Fab, V domains shown)
VH: B1 VH with R107E
VL: B1 VL
B24: XPA23 Fab, heavy chain Y101N (Fab, V domains shown)
VH: B1 VH with Y101N, R107Y
VL: B1 VL
B25: XPA23 Fab, heavy chain Y101D (Fab, V domains shown)
VH: B1 VH with Y101D, R107Y
VL: B1 VL
B26: XPA23 Fab, heavy chain Y101Q (Fab, V domains shown)
VH: B1 VH with Y101Q, R107Y
VL: B1 VL
B27: XPA23 Fab, heavy chain Y101E (Fab, V domains shown)
VH: B1 VH with Y101E, R107Y
VL: B1 VL
B28: XPA23 Fab, heavy chain V50R (Fab, V domains shown)
VH: B1 VH with V50R, R107Y
VL: B1 VL
B29: XPA23 Fab, heavy chain V50Y (Fab, V domains shown)
VH: B1 VH with V50Y, R107Y
VL: B1 VL
B30: XPA23 Fab, heavy chain Y32D (Fab, V domains shown)
VH: B1 VH with Y32D, R107Y
VL: B1 VL
B31: XPA23 Fab, heavy chain V99S (Fab, V domains shown)
VH: B1 VH with V99S, R107Y
VL: B1 VL
B32: XPA23 Fab, heavy chain V99K (Fab, V domains shown)
VH: B1 VH with V99K, R107Y
VL: B1 VL
B33: XPA23 Fab, heavy chain Y101H (Fab, V domains shown)
VH: B1 VH with Y101H, R107Y
VL: B1 VL
B34: XPA23 Fab, heavy chain Y101R (Fab, V domains shown)
VH: B1 VH with Y101R, R107Y
VL: B1 VL
B35: XPA23 Fab, heavy chain Y32S (Fab, V domains shown)
VH: B1 VH with Y32S, R107Y
VL: B1 VL
B36: XPA23 Fab, heavy chain V99N (Fab, V domains shown)
VH: B1 VH with V99N, R107Y
VL: B1 VL
B37: XPA23 Fab, heavy chain Y32E (Fab, V domains shown)
VH: B1 VH with Y32E, R107Y
VL: B1 VL
B38: XPA23 Fab, heavy chain Y107K (Fab, V domains shown)
VH: B1 VH with R107K
VL: B1 VL
B39: XPA23 Fab, heavy chain V99E (Fab, V domains shown)
VH: B1 VH with V99E, R107Y
VL: B1 VL
B40: XPA23 Fab, heavy chain V99Q (Fab, V domains shown)
VH: B1 VH with V99Q, R107Y
VL: B1 VL
B41: XPA23 light chain A51D (Fab, V domains shown)
VH: B1 VH with R107Y
VL: B1 VL with A51D
B42: XPA23 light chain A51E (Fab, V domains shown)
VH: B1 VH with R107Y
VL: B1 VL with A51E
B43: XPA23 light chain A51H (Fab, V domains shown)
VH: B1 VH with R107Y
VL: B1 VL with A51H
B44: XPA23 light chain A51F (Fab, V domains shown)
VH: B1 VH with R107Y
VL: B1 VL with A51F
B45: XPA23 light chain A51G (Fab, V domains shown)
VH: B1 VH with R107Y
VL: B1 VL with A51G

Target: T1, IL-1beta (UniProt P01584 117-269)
T1 construct: also called IL-1β
Test: Biacore

Binder | fold difference in affinity vs parental | binding result
B1 | 0.85 fold | –
B2 | 0.89 fold | –
B3 | – | no binding
B4 | 0.85 fold | –
B5 | 0.9 fold | –
B6 | – | no binding
B7 | – | no binding
B8 | – | no binding
B9 | 0.89 fold | –
B10 | 0.87 fold | –
B11 | 0.81 fold | –
B12 | 0.75 fold | –
B13 | – | no binding
B14 | 0.03 fold | –
B15 | – | no binding
B16 | – | no binding
B17 | 0.62 fold | –
B18 | 0.85 fold | –
B19 | 0.04 fold | –
B20 | – | no binding

Binder | fold difference in affinity vs parental | binding result
B21 | – | no binding
B22 | – | no binding
B23 | 0.9 fold | –
B24 | 0.06 fold | –
B25 | – | no binding
B26 | 0.06 fold | –
B27 | 0.03 fold | –
B28 | – | no binding
B29 | – | no binding
B30 | 0.68 fold | –
B31 | – | no binding
B32 | – | no binding
B33 | 0.04 fold | –
B34 | 0.85 fold | –
B35 | 1.33 fold | –
B36 | – | no binding
B37 | 0.12 fold | –
B38 | 0.82 fold | –
B39 | – | no binding
B40 | – | no binding

Target: T2, IL-1β (UniProt P01584 117-269)
T2 construct: Antigen immobilised on the Biacore chip
Test: Biacore, periplasmic extract

Binder | fold difference in affinity vs original | binding result
B41 | 0.13 fold | –
B42 | 0.29 fold | –
B43 | 0.61 fold | –
B44 | – | no binding
B45 | 3.84 fold | –
